# Source: the supplement of paper PMC9170038
# Tested on: MS2 coat protein
# Assay: apparent KD of MS2 coat protein; designed switch direction (-1 OFF switch, 1 ON switch): -1; higher = weaker reporter binding
# In short: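 Designed RNA switches sharing common flanks were transcribed on Illumina chips by stalled E. coli RNA polymerase. They were titrated with SNAP-549-labelled MS2 coat protein, from 0.7 or 1.5 nM doubling to 3 µM, in Tris-HCl pH 7.5 buffer with KCl, MgCl2, BSA, DTT, tRNA and Tween-20. Titrations ran without input, with 200 uM small-molecule ligand, or with an oligonucleotide input. The apparent KD of each design is the median over its clusters, after curve-fitting of normalised cluster fluorescence.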
# [1] = input ligand: microRNA oligo, concentration not stated
Sequence,apparent KD of MS2 coat protein (input ligand: FMN 200 uM) [nM],apparent KD of MS2 coat protein (input ligand: none) [nM],apparent KD of MS2 coat protein [1] [nM],"apparent KD of MS2 coat protein (Eterna round: R95, input ligand: FMN 200 uM) [nM]","apparent KD of MS2 coat protein (Eterna round: R95, input ligand: microRNA oligo, concentration not stated) [nM]","apparent KD of MS2 coat protein (Eterna round: R95, input ligand: none) [nM]"
"AGUGUGAGGCAGGAUAUGCUAUAUGUAAGUAAUGCAGAAGGGUCUACAUGAGGAUCACCCAUGUGUGCGGUUGA [Ex6 #9] (Eterna round: R97, puzzle: Exclusion 6)",797,116,,,,
"AGUGUGUGGCAGGAUAUUCUAAUCGUGAGUAGGGAAGAAGGGUCUACAUGAGGAUCACCCAUGUAAGCGGUUGA [Ex6 #43] (Eterna round: R97, puzzle: Exclusion 6)",257,209,,,,
"AGUGUGUGGCAGGAUAUUCUAAUCUUUAGGAGGGAAGAAGGGUCUACAUGAGGAUCACCCAUGUAAGCGGUUGA [Ex6 #40] (Eterna round: R97, puzzle: Exclusion 6)",221,75.3,,,,
"AGUGUGUGGCAGGAUAUUCUGUUGGUUCGGACAGAAGAAGGGUCUACAUGAGGAUCACCCAUGUAAGCGGUUGA [Ex6 #34] (Eterna round: R97, puzzle: Exclusion 6)",173,264,,,,
"AGUUCAAGGAAUUCUUCUGACAUGAGGAUCACCCAUGUGCUUUGCAAGUGUUGCUCGUCGCCUAGAACGUUAAGUAA [Eternabot (Original) Solution 32] (Eterna round: R97, puzzle: Sensor, turn-off variant 1)",158,225,,,,
"AGUUGUUGCGCAGGAUAUGAGGAUCACCCAUAGUAGGAUAUCGAAAGGGAAGGACUGAGGAUUACCCAGAAGGGCGUGAUGACA [pwkr exNG2 2xF5 2xFMN.7] (Eterna round: R96, puzzle: Exclusion NG 2)",1530,302,292,,,
"AGUUUACAUGAGGAUCACCCAUGUGAGGAUAUGGAUUCGCUGGCCGUAGCCAGUGGAUCCAGAAGGCGCAUGAU [JL-ex1-4.13] (Eterna round: R97, puzzle: Exclusion 1)",401,86.3,,,,
"AUAAAGUGAGGAUAUCCAAUAUAUGACAUGAGGAUCACCCAUGUUUCCACUCGUACCUCCGGAGAAGGCACAAAAU [Ex5 #61] (Eterna round: R97, puzzle: Exclusion 5)",24.5,30.5,,,,
"AUAAAUCAUGUAGGAUAUGCGUGGAGAAACUAUGCAGAAGGACAUGAGGAUCACCCAUGUGCUUCCGUCUGCGUACAGAUGGUA [Mat - Exclusion NG 1 - Mod of JL - D9] (Eterna round: R96, puzzle: Exclusion NG 1)",134,27.3,20.1,,,
"AUAAAUCAUGUAGGAUAUGCGUGGCAAAGCUAUGCAGAAGGACAUGAGGAUCACCCAUGUUCUUCCGUCUGCGUACAGACGGAA [Mat - Exclusion NG 1 - Mod of JL - D40] (Eterna round: R96, puzzle: Exclusion NG 1)",418,37.3,31.4,,,
"AUAAAUCAUGUAGGAUAUGCGUGGCGAAGCUAUGCAGAAGGACAUGAGGAUCACCCAUGUGCUUCCGUCUGCGUACAGACGGUA [Mat - Exclusion NG 1 - Mod of JL - D10] (Eterna round: R96, puzzle: Exclusion NG 1)",125,142,77.6,,,
"AUAAAUCAUGUAGGAUAUGCGUGGCGAAGCUAUGCAGAAGGACAUGAGGAUCACCCAUGUGCUUGCGUCUGCGUACAGAUGCUA [Mat - Exclusion NG 1 - Mod of JL - D5] (Eterna round: R96, puzzle: Exclusion NG 1)",330,51.7,37.7,,,
"AUAAAUUUAGAGGAUAUCUUAUAUGGGCGACCGAGAGAAGGCUGGACAUGAGGAUCACCCAUGUGCUUCGGUGA [Eternabot (L1) Solution 96] (Eterna round: R97, puzzle: Exclusion 6)",67.5,75,,,,
"AUAACAUGCUGGUGAUCAUACAUGAGGAUCACCCAUGUAACAAGCUUUUUGCUCGUCUUAUAAGAUCACCAGCAUGU [Stov1/9-A2] (Eterna round: R97, puzzle: Sensor, turn-off variant 1)",14.8,15.4,,,,
"AUAACGAUAGUCAGGAUAUCGGUGGCAUCCGUCACCGAGAAGGGACAUGAGGAUCACCCAUGUUAAGCCUAUGA [Eternabot (L1) Solution 69] (Eterna round: R97, puzzle: Brourd's mod of Exclusion 4)",11.5,19.3,,,,
"AUAAGCUUUGAGAUCCUUAACAUGAGGAUCACCCAUGUUCGUCUUAUGAUGGUCUGAUCCCUGAGGAUCGGACCGUU [JL-sv1-2.02 Brourd Mod] (puzzle: Sensor v3, turn-off variant 1)",,,,262,10.4,257
